In test [1] the target is T1, rat frizzled-1 receptor (rat, UniProt Q08463 69-641). The test can be described thus: cell-based or functional assay.
The target of test [2] is T2, rat frizzled-2 receptor (rat, UniProt Q08464 29-570). Put plainly: cell-based or functional assay.
Test [3] concerns the target T1, rat frizzled-1 receptor. Put plainly: cell-based or functional assay. This is another data set of the same source.
The target in test [4] is T2, rat frizzled-2 receptor. Put plainly: cell-based or functional assay. This is another data set of the same source.
For test [5], the target named is T2, rat frizzled-2 receptor. The test can be described thus: inferred by the filing from inhibition curves of Wnt3a-induced luciferase activity in transfected HEK293-superTOPflash cells. On the procedure: To determine the inhibitory constant of UM206-8, HEK293-superTOPflash cells were transfected with either rFzd-1 or -2 and incubated with Wnt3a (10⁻⁹M) in the presence of increasing concentrations of either of the peptides (FIG. 15). For UM206, a biphasic inhibition curve was observed that was best fitted with a two-binding-state model.

The target of test [6] is T3, mouse Fzd-2 (mouse, UniProt Q9JIP6 29-570).
T3 construct: whole, on cells; also called mouse frizzled-2
T3 sequence (Q9JIP6 29-570): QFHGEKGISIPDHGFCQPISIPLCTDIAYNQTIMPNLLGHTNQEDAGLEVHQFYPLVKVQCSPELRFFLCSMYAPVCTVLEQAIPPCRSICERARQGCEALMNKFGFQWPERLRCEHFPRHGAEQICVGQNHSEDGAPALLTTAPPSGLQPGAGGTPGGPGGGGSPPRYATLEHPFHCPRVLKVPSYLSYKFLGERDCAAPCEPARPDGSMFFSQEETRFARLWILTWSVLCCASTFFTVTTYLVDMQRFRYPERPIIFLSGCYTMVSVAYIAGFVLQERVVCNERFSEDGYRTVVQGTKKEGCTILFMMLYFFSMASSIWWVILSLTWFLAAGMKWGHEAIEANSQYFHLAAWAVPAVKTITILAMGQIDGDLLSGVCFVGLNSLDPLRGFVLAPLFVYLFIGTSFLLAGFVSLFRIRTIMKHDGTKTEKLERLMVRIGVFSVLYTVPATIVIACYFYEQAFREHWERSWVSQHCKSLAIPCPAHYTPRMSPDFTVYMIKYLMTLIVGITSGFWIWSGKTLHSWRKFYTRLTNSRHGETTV
The test can be described thus: rhodamine-labeled UM206 on kidney and small intestine sections.

The target of test [7] is T4, mouse Fzd-1 (mouse, UniProt O70421 69-642).
T4 construct: whole, on cells; also called mouse frizzled-1
T4 sequence (O70421 69-642): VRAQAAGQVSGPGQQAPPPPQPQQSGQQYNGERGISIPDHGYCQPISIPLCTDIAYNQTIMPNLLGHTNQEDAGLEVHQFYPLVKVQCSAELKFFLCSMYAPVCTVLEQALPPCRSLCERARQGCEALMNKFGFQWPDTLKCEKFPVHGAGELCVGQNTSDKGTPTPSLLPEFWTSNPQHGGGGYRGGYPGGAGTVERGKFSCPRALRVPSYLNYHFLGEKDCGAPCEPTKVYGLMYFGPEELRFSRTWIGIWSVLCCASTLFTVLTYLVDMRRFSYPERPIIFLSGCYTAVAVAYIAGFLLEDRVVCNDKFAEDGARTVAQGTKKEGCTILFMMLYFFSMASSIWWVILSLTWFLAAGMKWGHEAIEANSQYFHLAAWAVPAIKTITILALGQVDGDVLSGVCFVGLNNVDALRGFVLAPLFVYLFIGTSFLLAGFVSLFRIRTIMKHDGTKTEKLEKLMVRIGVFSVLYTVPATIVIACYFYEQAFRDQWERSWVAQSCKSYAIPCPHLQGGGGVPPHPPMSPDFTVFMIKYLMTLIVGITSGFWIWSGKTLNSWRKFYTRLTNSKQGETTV
Put plainly: fluorescence imaging of small intestine and kidney sections.

Bridges are numbered along the chain shown (N, C = ends). Where no end group is shown, it is not given here. rhodamine = not defined here; alkyl = not defined here

From patent US20120014876A1 (ACADEMISCH ZIEKENHUIS MAASTRICHT, published 2012) come the findings set out here.

T1 sequence (Q08463 69-641): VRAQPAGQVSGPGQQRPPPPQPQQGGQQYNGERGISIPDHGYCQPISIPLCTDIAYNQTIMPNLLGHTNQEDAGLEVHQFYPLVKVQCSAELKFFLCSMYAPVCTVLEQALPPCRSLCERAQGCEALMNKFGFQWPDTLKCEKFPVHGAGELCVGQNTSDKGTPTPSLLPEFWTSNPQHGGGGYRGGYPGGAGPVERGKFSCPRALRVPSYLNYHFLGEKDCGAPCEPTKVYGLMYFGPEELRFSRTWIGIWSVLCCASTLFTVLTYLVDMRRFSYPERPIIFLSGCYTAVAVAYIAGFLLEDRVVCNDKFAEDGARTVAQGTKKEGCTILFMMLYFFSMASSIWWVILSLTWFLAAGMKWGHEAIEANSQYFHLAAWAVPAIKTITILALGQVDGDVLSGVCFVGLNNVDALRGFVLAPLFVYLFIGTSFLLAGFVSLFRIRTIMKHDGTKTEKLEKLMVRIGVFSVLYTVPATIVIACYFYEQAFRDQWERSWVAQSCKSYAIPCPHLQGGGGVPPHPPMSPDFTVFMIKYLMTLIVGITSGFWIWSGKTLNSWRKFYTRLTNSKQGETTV
T2 sequence (Q08464 29-570): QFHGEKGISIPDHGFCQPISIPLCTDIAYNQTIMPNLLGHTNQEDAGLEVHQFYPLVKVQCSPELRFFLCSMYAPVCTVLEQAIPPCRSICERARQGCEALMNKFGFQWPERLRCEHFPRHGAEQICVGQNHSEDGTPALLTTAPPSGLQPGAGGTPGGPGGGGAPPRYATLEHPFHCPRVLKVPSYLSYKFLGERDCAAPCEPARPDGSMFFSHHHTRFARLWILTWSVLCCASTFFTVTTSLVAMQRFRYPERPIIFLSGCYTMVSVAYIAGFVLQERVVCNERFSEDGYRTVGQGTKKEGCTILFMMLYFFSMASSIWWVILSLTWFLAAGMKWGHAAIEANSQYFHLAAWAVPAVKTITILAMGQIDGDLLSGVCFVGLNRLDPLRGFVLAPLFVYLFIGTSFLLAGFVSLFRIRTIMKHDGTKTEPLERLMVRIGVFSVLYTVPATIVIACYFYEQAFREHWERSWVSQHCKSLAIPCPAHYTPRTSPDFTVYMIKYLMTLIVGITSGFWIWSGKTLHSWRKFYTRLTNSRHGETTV

As to CNKASEGMDGCEL-NH2 (cysteine pairing not given here) [UM206 (4 T = A)], the “% of inhibition of Wnt3a-induced luciferase activity, peptide 1.10^-9 M” value (“% of inhibition … peptide 1.10^-9 M” for short) in test [1] came to 28.1%; in test [2] it was 59.4%.

On to CNKTSEGMDGCAA-NH2 (cysteine pairing not given here) [UM206 (12-13 EL = AA)], for which the figures for the “% of inhibition … peptide 1.10^-9 M” value in test [1] and in test [2] were 66.8% and 74.3%, respectively.

With CNATSEGMDGCEL-NH2 (cysteine pairing not given here) [UM206 (3 K = A)], the results for the “% of inhibition … peptide 1.10^-9 M” value in test [1] and in test [2] were 70.8% and 84.9%, respectively.

Regarding CNKTSEGMAGCEL-NH2 (cysteine pairing not given here) [UM206 (9 D = A)], the “% of inhibition … peptide 1.10^-9 M” value in test [1] was determined as 40.5%; in test [2], 60.5%.

In the case of Ac-GIKECQYQFRHRRWNCSTVD-NH2 (cysteine pairing not given here) [Peptide UM207], the “IC50, inhibition of Wnt3a (10^-9 M)-induced luciferase activity, single binding site fit” value amounted to 40 nM in test [3] and 15.2 nM in test [4].

B1: Peptide UM206 (peptide)
peptide: Ac-CNKTSEGMDGCEL-NH2
modifications: cysteine pairing not given here
notes: Linear form, no disulfide bridge between the two cysteines; also called antagonist UM206
In the case of B1, the “% of inhibition … peptide 1.10^-9 M” value in test [1] came out at 72.2%. Moreover, the “% of inhibition … peptide 1.10^-9 M” value in test [2] is 75.1%. The “fold higher affinity than to rFzd-1” value in test [5] is around 100 fold. Moreover, in test [3], the “IC50, inhibition of Wnt3a (10^-9 M)-induced luciferase activity, two-binding-state fit, major binding site” value was determined as 2.1 nM and the “IC50, inhibition of Wnt3a-induced luciferase activity” value turned out to be 1 nM. Besides, in test [4], the “IC50, inhibition of Wnt3a (10^-9 M)-induced luciferase activity, two-binding-state fit, high affinity site” value came to 0.0169 nM and the “IC50, inhibition of Wnt3a-induced luciferase activity” value stood at 0.1 nM.

B2: UM206 (C = C-alkyl) (peptide)
peptide: C(alkyl)NKTSEGMDGC(alkyl)EL-NH2
modifications: not fully specified (N-terminus); reading uncertain; also: alkyl group not given here
In the case of B2, the “% of inhibition … peptide 1.10^-9 M” value in test [1] came to 1%; in test [2] it was 12.4%.

B3: rhodamine-labeled UM206 (peptide)
peptide: Ac-CNK(rhodamine)TSEGMDGCEL-NH2
modifications: cysteine pairing not given here; reading uncertain
notes: UM206 with rhodamine on Lys3; end groups as UM206 (Ac-, -NH2) not restated; also called UM206-rhodamine; UM206-Rhodamine
Turning to B3, the binding result in test [6] and in test [7] was “binds” throughout.

With CNKASEAMAGCEL-NH2 (cysteine pairing not given here) [UM206 (4 T = A, 7 G = A, 9 D = A)], the figures for the “% of inhibition … peptide 1.10^-9 M” value in test [1] and in test [2] were 11.2% and 17.5%, respectively.

Turning to CNKTSEGMDGCAL-NH2 (cysteine pairing not given here) [UM206 (12 E = A)], the “% of inhibition … peptide 1.10^-9 M” value in test [1] is 65.9%; in test [2] it was 85.5%.

As to CNKTSEAMDGCEL-NH2 (cysteine pairing not given here) [UM206 (7 G = A)], the figures for the “% of inhibition … peptide 1.10^-9 M” value in test [1] and in test [2] were 52.6% and 63.1%, respectively.

With CNKTSAGMDGCEL-NH2 (cysteine pairing not given here) [UM206 (6 E = A)], the results for the “% of inhibition … peptide 1.10^-9 M” value in test [1] and in test [2] were 70.8% and 84.7%, respectively.

On to CNVSSHGIDGCDL-NH2 (cysteine pairing not given here) [peptide CNVSSHGIDGCDL (SEQ ID NO:18)], for which the figures for the “% of inhibition … peptide 1.10^-9 M” value in test [1] and in test [2] were 45.3% and 62.4%, respectively.

As for CNKTSEGMDGCEA-NH2 (cysteine pairing not given here) [UM206 (13 L = A)], the “% of inhibition … peptide 1.10^-9 M” value in test [1] came to 65.9%; in test [2], 86.5%.

B4: Wnt3a (ligand)
chain: SYPIWWSLAVGPQYSSLGSQPILCASIPGLVPKQLRFCRNYVEIMPSVAEGIKIGIQECQHQFRGRRWNCTTVHDSLAIFGPVLDKATRESAFVHAIASAGVAFAVTRSCAEGTAAICGCSSRHQGSPGKGWKWGGCSEDIEFGGMVSREFADARENRPDARSAMNRHNNEAGRQAIASHMHLKCKCHGLSGSCEVKTCWWSQPDFRAIGDFLKDKYDSASEMVVEKHRESRGWVETLRPRYTYFKVPTERDLVYYEASPNFCEPNPETGSFGTRDRTCNVSSHGIDGCDLLCCGRGHNARAERRREKCRCVFHWCCYVSCQECTRVYDVHTCK
Take B4: the “fold increase of luciferase activity (TOPflash reporter, HEK cells)” value in test [4] stood at 12 fold.

For ANKTSEGMDGCEL [UM206 (1 C = A)], the “% of inhibition … peptide 1.10^-9 M” value in test [1] amounted to 70.8%; in test [2], 82.6%.

As for ANKTSEGMDGAEL [UM206 (C = A)], the “% of inhibition … peptide 1.10^-9 M” value in test [1] was determined as 0%; in test [2] it was 8.39%.

As for CNKTSEGMDACEL-NH2 (cysteine pairing not given here) [UM206 (10 G = A)], the figures for the “% of inhibition … peptide 1.10^-9 M” value in test [1] and in test [2] were 69.9% and 83.3%, respectively.

Consider CAKTSEGMDGCEL-NH2 (cysteine pairing not given here) [UM206 (2 N = A)], for which the “% of inhibition … peptide 1.10^-9 M” value in test [1] amounted to 68%; in test [2], 79.5%.

As for SNKTSEGMDGSEL [UM206 (C = S)], the “% of inhibition … peptide 1.10^-9 M” value in test [1] was 0%; in test [2] it was 17%.

Regarding CNKTSEGMDGC-NH2 (cysteine pairing not given here) [UM206 - (deletion of the C-terminal Glutamic acid and Leucine)], the “% of inhibition … peptide 1.10^-9 M” value in test [1] stood at 18%; in test [2], 61.2%.

On to CNKTSEGMDGAEL [UM206 (11 C = A)], for which the entries for the “% of inhibition … peptide 1.10^-9 M” value in test [1] and in test [2] were 67.2% and 84.9%, respectively.

Turning to CNKTSEGADGCEL-NH2 (cysteine pairing not given here) [UM206 (8 M = A)], the “% of inhibition … peptide 1.10^-9 M” value was 67.6% in test [1] and 85% in test [2].

Regarding CNKTAEGMDGCEL-NH2 (cysteine pairing not given here) [UM206 (5 S = A)], the “% of inhibition … peptide 1.10^-9 M” value in test [1] amounted to 74.3%; in test [2] it was 87.3%.

With Ac-CNKTSEGMDGCEL-NH2 (disulfide 1-11) [Peptide UM206(S-S)], the “EC50, luciferase activity (amount of agonist that yields 50% of maximum activity)” value is 10 nM in test [3] and 20 nM in test [4].
